Laboratory results as given in patent publication US12559545.

Target: NiVB-G (Nipah virus, strain Bangladesh)

B1: HENV-83 (antibody, V domains shown)
VH: QVQLVESGGGVVQPGGSLRLSCAASGFTFRSYSMNWVRQAPGKGPEWMAVISYDGSNKYYTDSVKGRFTISRDNSKNTLNLQMNSLTSEDTAIYYCARFRGGGRIAARPDDYGMDVWGQGTTVTVST
VL: DIQMTQSPSSLSASVGDRVTITCRASESVITYLNWYQQKPGKAPKLLIYGASTLESGVPSRFSGSGSGTVFTLTISSLQPEDIATYYCQQSYNMSPYTFGQGTKLEIK
B1 gave an EC50 of 2.79 nM.

B2: HENV-188 (antibody, V domains shown)
VH: QVQVVESGGGVVHPGRSLRLSCAGSGFIFNNYAFHWVRQAPGGGLEWMAYISYDGRYKYYAASVRGRFTISRDDSKNTLYLQMSSLRTEDTALYYCAISDYAEPLDNWGQGTLVTVSS
VL: QIVLTQSPATLSLSPGDRATLSCRASQSVSSNVAWYQQKPGQAPRLLIYNVSNRATGIPARFSGSGSGTDFTLTISSLEPEDFAVYYCHQRTNWPLTFGGGTKVEIK
Binder B2 has an EC50 of 1.26 nM.

B3: HENV-103 (antibody, V domains shown)
VH: QVQLQGSGPGLVKPSQTLSLTCSVSGGSVSRSGYYWGWIRQHPGKGLECIGYIYYSGITYYNPSLSGRLTISVDTSKNQFSLELSSVTAADTAVYYCARVWLGGGVFDFWGQGSLVTVSS
VL: EIVMTQSPATLSVSPGEGATLSCRASQSVSSNLAWYQQKPGQAPRLLIYDASTRATGIPARFSGSGSGTEFTLTISSLQSEDFAVYYCQQYNDWRTFGRGTKVEMR
For B3, the EC50 was 1.34 nM.

B4: HENV-150 (antibody, V domains shown)
VH: EVQLLESGGGLVQPGGSLRLSCAASGFTFSSSAMSWVRQTPGKGLEWVSTISGSGANTYYAASVKGRFPISRDNSKNTLFLQMNSLRAEDTAVYYCAKVSTVTFGGHVPRGSYFDYWGQGTQVTVSS
VL: SYVLTQPPSVSVAPGQTARIPCGGNNIGSKSVHWYQQKPGQAPVLVVYDENDRPSGIPERFSASKSGNTATLTISRVEAGDEADYYCQVWDSRSDHYVFGTGTKVTVL
Work on B4 yielded an EC50 of 0.332 nM.

B5: HENV-226 (antibody, V domains shown)
VH: EERLVQSGGGLAQPGQSLRLSCAGFGFTFTRYEMNWVRQAPGKGLEWIAHISTRGDTISYADSVKGRATISRDDTNNSLDLQMDSLRAEDTAIYFCARDRGSLSTRPPDSYHYYYHGMDVWGQGTTVIVSS
VL: EIVLTQSPATLSLSPGERATLSCRASQSIDTYLAWYQQKPGQAPRLLIYDASNRATGIPARFSGSGSGTDFSLTISSLEPDDFAVYYCQQRSNRPPRYTFGLGTRLEIK
With B5 the EC50 was 0.361 nM.

B6: HENV-98 (antibody, V domains shown)
VH: AVQLVESGGGLVQPGGSLRLSCEASGFTFSGYWMSWVRQAPGKGLEWVANIKGDGSEKYYVDSVKGRFTIFRDNAKTSLYLQVNSLRAEDTAVYYCARERHFLAARPGYYIYSGLDVWGPGTTVTVSS
VL: DIQMTQSPSSLSASVGDRVTITCRASQSIDNYLNWYQQKPGKVPKLLIYAASNLQSGVPSKFSGGGSGTDFTLTISSLQPDDFATYYCQQSFGTPRTFGQGTRVEIK
For B6, the EC50 was 0.58 nM.

B7: HENV-184 (antibody, V domains shown)
VH: QVQLVQSGTEVKNPGSSVKVSCKASGGTFSGFGISWVRQAPGQGLEWMGGVLPIFGSPNYAQKFQGRVTITADESTGTAYMDLSSLRSDDTAMYYCARDQSGGFFDYWGQGTLVIVSS
VL: EIVLTQSPATLSLSPGERATLSCRASQSVSSNLAWYQQKPGQAPRLLIYDASDRATGVPARFSGSGSGTDFTLTISSLEPEDFALYYCQQRYNWRVTFGQGTRLEIK
B7 showed an EC50 of 2.32 nM.

B8: HENV-141 (antibody, V domains shown)
VH: QVQLVQSGAEVKKPGSSVKVSCKASGGTFSSYTISWVRQAPGQGLEWMGRIIPISGITNYAQKFQGRVTITADKSTSTAYMELSSLRSEDTAVYYCAKDCYYGSGTYYGCRADYQWHHTMDVWGQGTTVTVSS
VL: DIQMTQSPSSLSASVGDRVTITCRASQGIRNDLGWFQQKPGKAPKRLIYAASSLQSGVPSRFSGSGSGTEFTLTISSLQPEDFATYFCLQHNTYPLTFGQGTKVEIK
For B8, the EC50 was 0.778 nM.

B9: HENV-137 (antibody, V domains shown)
VH: EVQLVESGGGLVQPRGSLRLSCAASGFTFSGYWMSWVRQAPGKGLEWVAKIKKDGSEKTYVDSVKGRFTISRDNAKDSLYLQMNSLRAEDTAVYYCARERLLVPAAIVGLDYYYAMDVWGQGTTVTVSS
VL: DIQMTQSPSSLSASVGDRVTITCRASQNMSTYLNWYQQKPGKAPKFLIYGASRLQNGVPSRFSGGGSGTDFTLTISSLQPEDFATYYCQQSYNIPITFGQGTRLEIK
In the case of B9, the EC50 is reported as 0.84 nM.

B10: HENV-242 (antibody, V domains shown)
VH: QVQLVQSGAEVKKPGSSVTVSCKTSGGTFSGYAVSWVRQAPGQGLEWMGRIVPQFNIPNYAQKFQDRVTITADESTGTSYMELSSLRSDDTAVFYCARENIQTIFGVVAMMGGGGYFDSWGQGTLVTVSS
VL: DIQMTQSPSSLSASVGDRVTITCQANQDINTYLNWYLQKPGKAPQLLVFDASNLVTGVPSRFSGGGSRTDFTLTIDSLQPEDIGTYYCQQYDHLPRRTFTFGPGTKVDLK
B10 gave an EC50 of 7.67 nM.

B11: HENV-100 (antibody, V domains shown)
VH: QVQLVQSGAEVKKPGASVKVSCKASGYTFTSYYINWVRQAPGQGLEWVGTINPSGGSTTYAQKFQGRVTVTRDTSTSTVYMDLSGLRSGDTAVYYCARDRKGLAATPVYSDYYYGMDVWGQGTTVTVSS
VL: EIVLTQSPATLSLSPGERATLSCRASQSVSSFLAWYQQKPGQAPRLLISDASKRATGIPARFSGSGSGTDFSLTISSLEAEDFAVYYCQQSTNWRITFGQGTRLELK
With B11 the EC50 was 0.514 nM.

B12: HENV-142 (antibody, V domains shown)
VH: QVRLQESGPRLVKPSQTLSLTCTVSGGSISSRDYYWSWIRQHPGKGLEWIGYIYYSGTTYYNPSLESRVTLSLDTSKNQFSLDLTSVTAADTAVYHCARVWLGGGVFDFWGQGTLVTVSA
VL: EIVMTQSPDTLSVSPGERATLSCRASHSVTTNLAWYQQRPGQAPRLLIFDASTRATGIPARFSGSGSGTEFTLTIGSLQSEDFAVYYCQQYNDGRTFGQGTKVEIK
Binder B12 has an EC50 of 13 nM.

B13: HENV-58 (antibody, V domains shown)
VH: QVQLVQSGAEVKKPGSSVKVSCKASGGTFSNYVISWVRQAPGQGFEWMGRIIPMIGISNYAQKFQDRVTITADKDESTTTAYMELRGLRSEDTAMYYCASSTVTEVGAWGQGTLVTVSS
VL: AIQLTQSPSSLSASIGDRVTITCRASQGISSALAWFQQKPGKPPILLIYDASSLESGVPARFSGSGSGTDFTLTISSLQPEDFATYYCQQFYNHPLTFGPGTKVDIK
In the case of B13, the EC50 is reported as 1.44 nM.

B14: HENV-117 (antibody, V domains shown)
VH: QVQLQQWGAGLLKPSETLSLTCDLSGGSFTNYYWTWIRHLPGKGLEWLGEINHSGRTNYSPSLKSRVTISVDTSKNQFSLRLSSVTAADTAVYYCARDIRKLAPKPHSYDLYYGMDVWGQGTTVTVSS
VL: EIVLTQSPGTLSLSPGERATLSCRASQSVGSNYLTWYQQKPGQPPRLLIYGASNRAAGIPDRFSGSGSGTDFTLTISRLEPEDFAVYYCQQYETSSRTFGQGTKVDIR
Work on B14 yielded an EC50 of 1.2 nM.

B15: HENV-122 (antibody, V domains shown)
VH: EVQLLESGGGLVQPGGSLRLSCAASGFTFSTNAMSWVRQAPGKGLEWVSTVSGSGAHPNYGDSVKGRFTISRVNSKNTLFLQMSSLRAEDTAIYYCARVSTVTVGGHIPRGYYFDYWGQGTLVTVSS
VL: EILLTQSPGTLSLSPGERATLSCRASQSASSSYLAWYQQKPGQAPRLLIYGASTRATGIPDRFSGSGSGTEFTLTISRLESEDFAVYYCHHYGSSRTFGQGTKVEVK
B15 gave an EC50 of 0.382 nM.

B16: HENV-99 (antibody, V domains shown)
VH: QVLLVQSGAEVRKPGASVKVSCRASGYTFTDYYMHWVRQAPGQGLEWMGWINPNSGATKYAQKFQGRVTLTRDTSINTAYMELSGLRSVDTAVFYCASVPPSGFFYWGSDYWGQGTLVTVSS
VL: DVVLTQSPLSLPVTLGQPASISCRSSQSLVYSDGTTYLNWFQQRPGQSPRRLIYKVSYRDSGVPDRFSGSGSGTDFTLEISRVEAEDVGIYYCMHGTHWETWTFGQGTKVEIK
For B16, the EC50 was 1.16 nM.
